# Source: US9593156B2 (priority 2012, dated 2017)
# Square brackets hold non-standard residues; d marks the D form. Primed or numbered codes have the meaning given here. Ends that are not written are not given here. PEG4′ = PEG spacer of 4 units in the linker; PEG8′ = PEG spacer of 8 units in the linker
# How the values were obtained:
# [1] = target: T1, type A insulin receptor (IR-A) (Homo sapiens, UniProt P06213); assay: Receptor kinase activity (phosphorylation) assay, type A insulin receptor; format: cell-based
# T1 construct: expressed in transfected cells; host or cells: HEK293
# [2] = target: T2, type B insulin receptor (IR-B) (Homo sapiens, UniProt P06213); assay: Receptor kinase activity (phosphorylation) assay, type B insulin receptor; format: cell-based; settings: Table 17
# T2 construct: expressed in transfected cells; host or cells: HEK293
# [3] = blood glucose lowering in mice
substance,measurement,setting,value
"C8-PEG20K B^1(H5,Y16,L17)25-PEG8-K-PEG4-A^1(N18,N21) (GPEHLCGAELVDALYLVCGDRGFY[PEG8′]K(PEG 20 kDa)[PEG4′]GIVDECCFRSCDLRRLENYCN; ends and bridges not checked) [#38]",% Insulin Activity IR-A,[1]; Table 12,14.8%
same,Phosphorylation (EC50) % IR-A,[1]; Table 17,14.8%
same,agonist character at the insulin receptor (type A),[1]; result in words,full agonist
same,Phosphorylation (EC50) % IR-B,[2],2.0%
same,duration of action,[3],24 h
